Results: US20240181135A1, “BIOCHEMICAL ACTIVATION OF DYSFUNCTIONAL SKELETAL STEM CELLS FOR SKELETAL REGENERATION” (The Board of Trustees of the Leland Stanford Junior …, priority 2021, published 2024)

Tested on: femoral fractures of ‘2-mo’ mice
Assay: Hydrogels containing recombinant Csf1 applied to femoral fractures of young mice (μCT and flow cytometry)
Assay type: in vivo, mouse
Conditions: 5 μg recombinant Csf1 in hydrogel, versus PBS
From the text: We also tested whether these increases in Csf1 affected bone maintenance and regeneration. […] Unexpectedly, however, femora harvested from transgenic mice at post-fracture day-21 had decreased mechanical strength compared to wild-type controls despite having increased BMD and similar callus volume (FIG. 3p-q & FIG. 11g). […] In total, SSC lineage derived Csf1 might drive increased bone resorption by stimulating higher osteoclast activity, and this activity needs to be maintained and finely balanced for proper bone health.
Bi-cortical femoral fracture: Animals were anaesthetized using aerosolized isoflurane and analgesia was administered before incision. The femur was exposed following muscle distraction and lateral dislocation of the patella. […]
Micro-computed tomography: Femora were harvested and cleaned of soft tissue. […] Reconstructed samples were analyzed using CT Analyser and CTvox software (Bruker). Trabecular bone parameters of uninjured femur bones were assessed by analyzing a region of 200 sections which was defined 50 sections distal of the end of the growth plate. Fracture calluses were analyzed by selecting 150 sections in both directions of the fracture gap yielding a total area of 300 sections. […]

B1: recombinant Csf1: recombinant Csf1 (5 μg) in hydrogel with defined release kinetics, applied to fractures (protein, UniProt P07141 33-552, looked up)
Macrophage colony-stimulating …: KEVSEHCSHMIGNGHLKVLQQLIDSQMETSCQIAFEFVDQEQLDDPVCYLKKAFFLVQDIIDETMRFKDNTPNANATERLQELSNNLNSCFTKDYEEQNKACVRTFHETPLQLLEKIKNFFNETKNLLEKDWNIFTKNCNNSFAKCSSRDVVTKPDCNCLYPKATPSSDPASASPHQPPAPSMAPLAGLAWDDSQRTEGSSLLPSELPLRIEDPGSAKQRPPRSTCQTLESTEQPNHGDRLTEDSQPHPSAGGPVPGVEDILESSLGTNWVLEEASGEASEGFLTQEAKFSPSTPVGGSIQAETDRPRALSASPFPKSTEDQKPVDITDRPLTEVNPMRPIGQTQNNTPEKTDGTSTLREDHQEPGSPHIATPNPQRVSNSATPVAQLLLPKSHSWGIVLPLGELEGKRSTRDRRSPAELEGGSASEGAARPVARFNSIPLTDTGHVEQHEGSSDPQIPESVFHLLVPGIILVLLTVGGLLFYKWKWRSHRDPQTLDSSVGRPEDSSLTQDEDRQVELPV
modifications: in hydrogel
notes: recombinant Csf1 (5 μg) in hydrogel with defined release kinetics, applied to fractures
In the case of B1, the “Fracture healing (μCT of day-10 calluses)” value is reported as “impaired healing” and the “SSC frequency at day-10 (flow cytometry)” value is reported as “without alteration of SSC frequency”.
